Data: patent US20120270800A1 (published 2012)
Positions of bridges follow the written chain, without caps; N, C: chain ends. Non-standard residues stand in square brackets, D forms with d. No end group written: not given here. S5 = C=CCCC[C@](C)(N)C(=O)O; βAla = NCCC(=O)O

Target: mSin3
Assay: fluorescence polarization

Kd: 12 nM
B1: SID2 (peptide)
peptide: [βAla]VRRRI[S5]MLL[S5]AANYLER
modifications: staple 7-11; also: FITC-conjugated in the assay, site not given here
